Laboratory results as given in the RNAGym collection of RNA variant scans (doi:10.1073/pnas.2313332121).

B1: TPR t1 (parent)
chain: GACCAAUCUGCCCUCAGAGCUCGAGAACAUCUUCGGAUGCAGAGGAGGCAGGCUUCGGUGGCGCGAUAGCGCCAACGUCCUCAACCUCCAAUGCAUCCCACCACAUGAUGAUGCCUGAAGAGCCUUGGUUUUUUG

Variants of: B1
Test: polymerase ribozyme fitness, log enrichment relative to wild type (log ratio); higher = more active; in vitro selection for triplet polymerase activity
Procedure, shortened: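 To select mutant libraries of each subunit of a heterodimeric triplet polymerase ribozyme, built by PCR and transcribed, each was annealed with a biotinylated primer, partner subunit and triplets, then incubated frozen at −7 °C. Extended constructs were gel-excised, captured on streptavidin beads and amplified by RT-PCR, in one round carried out in triplicate. Illumina sequencing of input and output libraries kept genotypes with ≥10 input reads and ≥1 read per output. Fitness is the base-2 logarithm of genotype enrichment relative to wild-type enrichment, from inverse-variance-weighted replicate averages.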
With GACCAAUCUGCCCUCAGAGCUCGAGGACAUCUUCGGAUGCAGAGGAGGCAGGCUUCGGUGGAGCGAUAGCGCCAACGUCCUCAACCUCUAAUGCAUCCCACCACAUGAUGAUGCCUGAAGAGCCUUGGUUUUUUG the “polymerase ribozyme fitness (log ratio)” value was -4.69. With GACCAAUCUGCCCUCAGAGCUCGAGGACAUCUUCGGAUGCAGAGGAGGCAGGCUUCGGUGGCGCGAUAGCGGCAACGUCCUCAACCUCCAAUGCAUCCCCCCACAUGAUGAUGCUUGAAGAGCCUUGAUUUUUUG the “polymerase ribozyme fitness (log ratio)” value was -5.88. In the case of GACCAAUCUGCCCUCAGAGCUCGAGGACAUCUUCGGAUGCAGAGGAGGCAGGCUUCGGUGGCGCGAUAGCGCCAACGUCCUCAACCUCCAAUGCAUCCCACCACAUGAUGAUGCCUGAAGAGGGUUGGUUUUUUG, the “polymerase ribozyme fitness (log ratio)” value is reported as 0.832. With GACCAAUCUGCCCUCAGAGCUCGAGGACAUCUUCGGAUGCAGAGGAGGCAGGCUUCGGUGGCGCGAUAGCGCCAACGUCCUCAACCUCCAAUACAUCCCACCACAUGAUGAUGCCUGAAGAGCCUUGGUUUUUUG the “polymerase ribozyme fitness (log ratio)” value was -2.29. For GACCAAUCUGCCCUCAGAGCUCGAGGACAUCUUCGGAUGCAGAGGAGGUAGGCUUCGGUGGCGCGAUAGCGCAAACGUCCUCAACCUCCAAUGCAUCCCACCACAUGAUGAUGCCUGAAGAGCCUUGGUUUUUUG, the “polymerase ribozyme fitness (log ratio)” value was -2.93. In the case of GACCAAUCUGCCCUCAGAGCUCGAGGACAUCUUCGGAUUCAGAGGAGGCAGGCUUCGGUGGCGCGAUACCGCCAAUGUCCUCAACCUCCAAUGCGUCCCACCACAUGAUAAUGCCUGAAGAGCCUUGGUUUUUUG, the “polymerase ribozyme fitness (log ratio)” value is reported as -5.41. With GACCAAUCUGCCCUCAGAGCUCGAGGACAUCUUCGGAUGCAGAGGAGGGAGGCUUCGGUGGCGCGAUAGCGCCAACGUCCUCAACCUCCAAUGCAUCCCACCACAUGAUGAUGCCUGAAGAGCCUUGGUUUUUUG the “polymerase ribozyme fitness (log ratio)” value was -2.93. For GACCAAUCUGCCCUCAGAGCUCGAGGACAUCUUAGGAUGCAGAAGAGGCAGGCUUCGGUGGCGCGAUAGCGCCAACGUCCUCAACCUCCAAUGCAUCCCACCACAUGAUGAUGCCUGAAGAGCUUUGGUUUUUUG, the “polymerase ribozyme fitness (log ratio)” value was -3.54. With GACCAAUCUGCCCUCAGAGCUCGAGGACAUCUUCGGAUGCAGAGGAGGCAGGCUUCGGUGGCGCGAUAGCGCCAACGUCCUCAACCUCCAAUGCAUCCCACCACUUGAUGAUGCCUGAAGAGCCUUGGUUUUUUG the “polymerase ribozyme fitness (log ratio)” value was -3.51. With GACCAAUCUGCCCUCAGAGCUCGAGGACAUCUUCGGAUGCAGAUGAGGCAGGCUUCGGUGACGCGAUAGCGCCAACGUCCUCAACCUCCAAUGCAUCCUACCACAUGAUGAUGCCUGAAUAGCAUUGGUUUUUUG the “polymerase ribozyme fitness (log ratio)” value was -3.22. For GACCAAUCUGCCCUCAGAGCUCGAGGACAUCUUCGGAUGCAGAGGAGGCAGGCUUCGGUGGCGCAAUAGCGCCAACGUCCUCAACCUCCAAUGCAUCCCACCACAUGAUGAUGCCUGAAGAGCCUUGGUUUUUUG, the “polymerase ribozyme fitness (log ratio)” value was -5.09. With GACCAAUCUGCCCUCAGAGCUCGAGGACAUCUUCGGAUGCAGAGGAGGCAGGCUUCGGUGGCGCGAUAGCGCCAACGUCCUCAACCUCCAAUGCAUCCCACCAUAUGAUCAUGCAUGAAGAGCCUUGGUUUUUUG the “polymerase ribozyme fitness (log ratio)” value was -5.13. With GACCAAUCUGCCCUCAGAGCUCGAGGACAUCUUCGGAUGCAGAGGAGGCAGGCUUCGGUGUCGCGAUAGCGCCAACGUCCUCAACCUCCAAUGCAUCCCACCACAUGAUGAUGCCUGAAGAGCCUUGGUUUUUUG the “polymerase ribozyme fitness (log ratio)” value was -1.54. In the case of GACCAAUCUGCCCUCAGAGCUCGAGGACAUCUUCGGAUGCAGAGGAGGCAGGCUUCAGUGGCGCGAUAGCGCCAACGUCCUCAACCUCCAAUGCAUCCCACCACAUGAUGAUGCCUGAAGAGCCUUGGUUUUUUG, the “polymerase ribozyme fitness (log ratio)” value is reported as -2.54. In the case of GACCAAUCUGCCCUCAGAGCUCGAGGACAUCUUCGGAUGCAGAGGGGGCAGGCUUCGGUGGCACGAUAGCGCCAACGUCCUCAACCUCCAAUGCAUCCCACCACAUGAUGAUGCCUGAAGAGCCUUGGUUUUUUG, the “polymerase ribozyme fitness (log ratio)” value is reported as -3.44. For GACCAAUCUGCCCUCAGAGCUCGAGGAUAUCUUCGGAUGCAGAGGAGGCAGGCUUCGGUGGCGCGAUAGCGCCAACGUCCUCAACCCCCAAUGCAUCCCACCACAUGAUGAUGCCUGUAGAGCCUUGGUUUUUUG, the “polymerase ribozyme fitness (log ratio)” value was -2.19. In the case of GACCAAUCUGCCCUCAGAGCUCGAGGACAUCUUCGGAUGCAGAGGAGGCAGGCUUCGGUGGCGCGAUAGCGCCAACGUCCUCAACCUCCAAUGCAUCCCACCACAUGAUGAUGCCUGAAGAGCGUUGGUUUUUUG, the “polymerase ribozyme fitness (log ratio)” value is reported as 0.285. In the case of GACCAAUCUGCCCUCAGAGCUCGAGGACAUCUUCGGAUGCAGAGGAAGCAGGCUUCGGUGGCGCGAUAGCGUCAACGUCCUCAACCUCCAAUCCAUCCCACCACAUGAUGAUACCUGAAGAGCCUUGGUUUUUUG, the “polymerase ribozyme fitness (log ratio)” value is reported as -6.9. For GACCAAUCUGCCCUCAGAGCUCGAGGACAUCUUCGGAUGCAGAGGAGGCAGGCUUCGGUGGCGCGAUAGCUCCAACGUCCUCAACCUCCAAUGCAUCCCACCACAUGAUGAUGCCUGAAGAGCCUUGGUUUUUUG, the “polymerase ribozyme fitness (log ratio)” value was -3.23. In the case of GACCAAUCUGCCCUCAGAGCUCGAGGACAUCUUCGGAUGCAGAGGAGGCAGGCUUCGGUCGCGCGAUAGCGCCAACGUCCUAAACCUCCAAUGCAUCCCACCACAUGAUGAUGCCUGAAGAGCCUUGGUUUUUUG, the “polymerase ribozyme fitness (log ratio)” value is reported as -2.8. In the case of GACCAAUCUGCCCUCAGAGCUCGAGGACAUCUGCGGAUGCAGAGGAGGCAGGCUUCGGUGACGCGAUAGCGCCAACGUCCUCACCCUCCAAUGCAUCUCACCACAUGAUGAUGCCUGAAGAGCCUUGGUUUUUUG, the “polymerase ribozyme fitness (log ratio)” value is reported as -5.59. In the case of GACCAAUCUGCCCUCAGAGCUCGAGGAUAUCUUCAGAUGCAGAGGAGGCAGGCUUCGGUGGCGCGAUAGCGCCAACGUCCUCAACCGCCAAUGCAUCCCACCACAUGAUGAUGCCUGAAGAGCAUUGGUUUUUUG, the “polymerase ribozyme fitness (log ratio)” value is reported as -4.92. In the case of GACCAAUCUGCCCUCAGAGCUCGAGGACAUCUUCGGAUGCAGAGGAGGCAGGCUUCGGUGGCGCGAUAGCGUCAACGUCCUCAACCUCCAAUGCAUCCCACCACAUGAUGAUGCCUGAAGAGCCUUGGUUUUUUG, the “polymerase ribozyme fitness (log ratio)” value is reported as -2.13. For GACCAAUCUGCCCUCAGAGCUCGAGGACAUCUUCGGAUGCAGAGGAGGCAGGCUUCGGUGGCUCGAUAGCGCCAACGUCCUCAACCUCCAAUGCUUCCUACCACAUGAUGAUGCCUGAAGAGCCUUGGUUUUUUG, the “polymerase ribozyme fitness (log ratio)” value was -5.64. For GACCAAUCUGCCCUCAGAGCUCGAGGACAUCUUCGGAUGCAGAGGAGGCAGGCUUCGGUGGCGCGAUAGCGCCAACGUCCUCAACCUCCAAUGCAUCCCACCACAUGAUUAUGCCUGAAGAGCCUUGGUUUUUUG, the “polymerase ribozyme fitness (log ratio)” value was -2.66. For GACCAAUCUGCCCUCAGAGCUCGAGGACAUCUUCGGAUGCAGAGGAGGCAGGCUUCGGUGGCGCGAUAGGGCCAACGUCCUCAACCUCCAAUGCAUCCCACCACAUGAUGAUACCUGAAGAGCCUUGGUUUUUUG, the “polymerase ribozyme fitness (log ratio)” value was -5.88. With GACCAAUCUGCCCUCAGAGCUCGAGGACAUCUUCGGAUGCAGAGGAGGCAGGCUUCGGUGGCGCGAUAGCGCCAACGUCCUCAACCUCCAAUGCAUCCCACCACAUGAUGUUGCCUGAAGAGCCUUGGUUUUUUG the “polymerase ribozyme fitness (log ratio)” value was -2.41. With GACCAAUCUGCCCUCAGAGCUCGAGGACAUCUUCGGAUGCAGAGGAGGCAGGCUUCGGUGGCGCGAUAGCGCCGACGUCCUCAACCUCCAAUUCAUCCCACCACAAGACGAUGCCUGAAGAGCCUUGGUUUUUUG the “polymerase ribozyme fitness (log ratio)” value was -3.92. With GACCAAUCUGCCCUCAGAGCUCGAGGACAUCUUCGGAUGCAGAGGAGAGAGGCUUCGGUGGCGCGAUAGCGCUAACGUCCUCAACCUCCAAUGCAUCCCACCACAUGAUGAUGCCUGAAGUGCCUUGGUUUUUUG the “polymerase ribozyme fitness (log ratio)” value was -0.344. For GACCAAUCUGCCCUCAGAGCUCGAGGACAUCUUCGGAUGCAGAGGAGGCAGGCUUCGGUGGCGCGAUAGCGCCAACGUCCUCCACCUCCGAUGCAUCCCACCACAUGAUGAUGCCUGAAGCGCCUUGGUUUUUUG, the “polymerase ribozyme fitness (log ratio)” value was -0.49. With GACCAAUCUGCCCUCAGAGCUCGAGGACAUCUUCGGAUGCAGAGGAGGCAGGCUUCGGUGGCGCGAUAGCGCCAACGUCCUCAGCCUCCAAUGAUUCCCACCACAUGAUGAUGCCUGAAGAGCCUUGGUUUUUUG the “polymerase ribozyme fitness (log ratio)” value was -4.63. In the case of GACCAAUCUGCCCUCAGAGCUCGAGGACAUCUUCGGAUGCAGAGGAGGCAGGCUUCGGUGGCGCGUUAGCGCCAACGUCCUCAUCCUCCAAUGCAUCCCACCACAUGAUUAUGCCUGAAGAGCCUUGGUUUUUUU, the “polymerase ribozyme fitness (log ratio)” value is reported as -5.61. For GACCAAUCUGCCCUCAGAGCUCGAGGACAUCUUCGGAUGCAGAGGAGGCAGGCUUGGGUGGCGCGAUAGCGCCAACGUCCUCAACCUCCAAUGCAUUCAACCACAUGAUGGUGCCUGAAGAGCCUUGGUUUUUUG, the “polymerase ribozyme fitness (log ratio)” value was -6.74. For GACCAAUCUGCCCUCAGAGCUCGAGGACAUCUUCGGAUGCAGAGGAGGCAGGCUUCGGUUGCGCGAUAGCGCCAACGUCCUCAACCUCCAAUGCAUCCCACCACAUGAUGAUGCCUGAAGAGCCUUGGUUUUUUG, the “polymerase ribozyme fitness (log ratio)” value was -2.17. For GACCAAUCUGCCCUCAGAGCUCGAGGACAUCUUCGGAUGCAGAGGAGGCAGGCUUCGGUGGCGCGAUAGCGCAAACGUCCUCAACCUCCAAUGCAUCCCUCCACAUGAUGAUGCCUGAAGAGCCUUGGUUUUUUG, the “polymerase ribozyme fitness (log ratio)” value was -2.85. With GACCAAUCUGCCCUCAGAGCUCGAGGACAUCUUCGGAUGCAGAUGAGGCAGGCUGCGGUGGCGCGAUAGCGCCAACGUCCUCAACCUUCAAUGCAUCCCACCACAUGAUGAUGCCUGAAGAGCCUUGGUUUUUUG the “polymerase ribozyme fitness (log ratio)” value was -3.03. In the case of GACCAAUCUGCCCUCAGAGCUCGAGGACAUCUUCGGAUGCAGAGGAGGCAGGCUUCGGUGGCUCGAUAGCGCCAACGUCCUCAACCUCCAAUGCAUCCCACCACAUGAUGAUGCCUGAAGAGCCUUGGUUUUUUG, the “polymerase ribozyme fitness (log ratio)” value is reported as -3.45. In the case of GACCAAUCUGCCCUCAGAGCUCGAGGACAUCUUCGGAUGCAGAGGAGGCAGGCUUCGGUGGUGCGAUAGCGCCAACGUCCUCAACCUCCAAUGCAUCCCACCACAUGAUGAUGCCUGAAGAGCCUUGGUUUUUUG, the “polymerase ribozyme fitness (log ratio)” value is reported as -1.47. In the case of GACCAAUCUGCCCUCAGAGCUCGAGGACAUCUUCGGAUGCAGAGGAGGCAGGCUUCGGUGGCGCGAUAGCGCCAACGUCCUUAACCUCCAAUGCAUCCCACCACAUGAUGAUGCCUGAAGAGCAUUCGUUUUCUU, the “polymerase ribozyme fitness (log ratio)” value is reported as -4.09. In the case of GACCAAUCUGCCCUCAGAGCUCGAGGACAUCUUCGGAUGCAGAGGAGGCAGGCUUCGGUGGCGCGAUAACGCCAACGUCCUCAACCUCCAAUGCAUCCCACCACAUGAUGAUGCCUGAAGAGCCUUGGUUUUUUG, the “polymerase ribozyme fitness (log ratio)” value is reported as -4.23. With GACCAAUCUGCCCUCAGAGCUCGAGGACAUCUUCGGAUGCAGAGGAGGCAGGCUUCGGUGGCGCGAUAGCGCCAACGUCCUCAACCUGCAAUGCAUUCCACCACAUGAUGAUGCCUGAAGAGACUUGGUUUUUUG the “polymerase ribozyme fitness (log ratio)” value was -3.63. For GACCAAUCUGCCCUCAGAGCUCGAGGACAUCCUCGGAUGCAGAGGAGGCAGGCUUCGGUAGCGUGAUAGCGCCAACGUCCUCAACCUCCAAUGCAUCCCACCACAUGAUGAUGCCUGAAGAGCCUUGGUUUUUUG, the “polymerase ribozyme fitness (log ratio)” value was -5.28.
